Assay results reported in patent publication US20240026407A1, “MODIFICATION OF SAPONINS” (GLAXOSMITHKLINE BIOLOGICALS SA, priority 2020, published 2024).

How the values were obtained:
[1] = Example 9: screening of rhamnosidase variants for derhamnosylation of saponins in crude bark extract; type: biochemical, Quillaja saponaria
Protocol: Libraries of genetic variants encoding mutations in the wild type Kribbella flavida rhamnosidase (SEQ ID No. 1017) were prepared using molecular biology techniques, enzymes were prepared linked to a C-terminally located His-tag. Single monoclonal colonies were grown in 400 ul of expression medium and protein expressed. Cell pellets were lysed in 200 ul of the relevant buffer (Table 17).
Lysate was diluted appropriately in the relevant buffer to allow a lysate loading of the indicated % loading (1% loading corresponds to use of 2 ul original lysate in a 200 ul reaction).
Crude bark extract (CBE) obtained by aqueous extraction of Quillaja saponaria and containing at least 2.80 mg/ml QS-21 (by HPLC-UV) was adjusted to pH 6 by dropwise addition of 2M NaOH with stirring. The relevant concentration of the relevant glucosidase was added. The appropriate relative volume of pH 6 CBE (160 ul (for 80%) or 150 ul (for 75%)) was added to each well of the reaction plate. The reaction plate was sealed and incubated at the relevant temperature and time.
The reaction plate was quenched by adding 200 uL of MeCN (2% AcOH, 1 mg/mL hexanophenone) to each well of the plates. The quenched reaction plate was re-sealed and incubated at 20 deg C. with shaking for 10 min. The reaction plate was then centrifuged (10 min, 4 degC).
200 uL was transferred from each well of the quenched plate to the corresponding wells of a fresh 96 well plate and sealed. The plate was analysed by UV HPLC with the method described in Example 4.
Three key peaks of interest are apparent using this chromatography: Left Peak (retention time approximately 2.30-2.35 min) comprising mainly QS-17 family components; Middle Peak (retention time approximately 2.37-2.42 min) comprising mainly QS-18 family components and desglucosyl-QS-17 family components; and Right Peak (retention time approximately 2.44-2.50 min) comprising mainly QS-21 family components. Peak identity was supported by MS/MS.
Enzyme activity is calculated as the % conversion of the Left Peak present in the crude bark extract: […]

[2] = Example 10: derhamnosylation of saponins in crude bark extract (50%) using WT and engineered rhamnosidases R1 to R5; type: biochemical, Quillaja saponaria; details: 7 h, 50% CBE, 35 degC; for % Right Peak: starting CBE 26; for % Left Peak: starting CBE 30; for % Middle Peak: starting CBE 44
Protocol: Lyophilised powders from clarified cell lysate expressing glucosidases (from Example 8 WT glucosidase and engineered glucosidase polypeptides G1 to G5) and rhamnosidases (from Example 9 WT rhamnosidase and engineered rhamnosidase polypeptides R1 to R5) were dissolved in 200 mM sodium acetate aqueous solution at pH 5.8 to prepare the enzyme solutions at 4 fold the final reaction concentration as shown in Tables 19 and 20.
Each rhamnosidase solution was combined with an equal volume of 200 mM sodium acetate aqueous solution at pH 5.8 and separately with an equal volume of 200 mM sodium acetate aqueous solution at pH 5.8 containing 2 mg/ml glucosidase G5. This is a sufficient loading of glucosidase to effect complete hydrolysis of the relevant glucose moiety within 4 hours.
CBE was adjusted to pH of 6.0 to 6.2 with 2M sodium hydroxide and an equal volume added to the enzyme solution to prepare the reaction mix (i.e. 50% CBE concentration in reaction mix) and the concentration of glucosidase and/or rhamnosidase is shown in Tables 19 and 20. The reaction mix was heated to 35 degC for the time indicated in Tables 19 and 20, after which the reaction was quenched by addition of an equal volume of MeCN containing 2% acetic acid and shaken at room temperature for 10 mins prior to centrifugation (10 min, 4 degC) to remove particulates. Samples were analysed by UV HPLC using method of Experiment 4-4.
The change in composition of the Left, Middle and Right peaks is shown in Tables 19 and 20. The composition changes by the action of the enzymes depending on the presence or absence of the partner enzyme. The extent of reaction is proportional to the enzyme concentration and the reaction time under these conditions. The tables show data for enzyme concentrations and the reaction times providing for equivalent extents of reaction. The improvement resulting from the mutations introduced for each variant is equal to the fold change in enzyme concentration×time (i.e. fold improvement=(enzyme concentration×time) for preceding variant÷(enzyme concentration×time) for later variant). A cumulative fold improvement over the original enzyme variant is calculated by the product of the individual fold improvements.

[3] = rhamnosidase 1.25 mg/ml + glucosidase G5 0.5 mg/ml
[4] = rhamnosidase 1.25 mg/ml, no glucosidase

- Left Peak % ([1]; R2 round: 20 deg C, 20 h, lysate 1.25% v/v, CBE 80% v/v, 100 mM Potassium phosphate pH 6, negative control 23.63): 22.76%
- Right Peak % ([1]; R2 round: 20 deg C, 20 h, lysate 1.25% v/v, CBE 80% v/v, 100 mM Potassium phosphate pH 6, negative control 26.10): 26.27%
- Middle Peak % ([1]; R2 round: 20 deg C, 20 h, lysate 1.25% v/v, CBE 80% v/v, 100 mM Potassium phosphate pH 6, negative control 50.27): 50.97%
- Right Peak % ([1]; R3 round: 35 deg C, 18 h, lysate 0.4% v/v, CBE 75% v/v, 100 mM Sodium acetate pH 5.8, negative control 26.60): 27.59%
- Left Peak % ([1]; R3 round: 35 deg C, 18 h, lysate 0.4% v/v, CBE 75% v/v, 100 mM Sodium acetate pH 5.8, negative control 28.91): 25.57%
- Middle Peak % ([1]; R3 round: 35 deg C, 18 h, lysate 0.4% v/v, CBE 75% v/v, 100 mM Sodium acetate pH 5.8, negative control 44.49): 46.84%
- Cumulative Fold improvement in primary enzyme loading × time [2, 3]: 4
- Fold improvement in primary enzyme loading × time [2, 3]: 2.0
- Cumulative Fold improvement in primary enzyme loading × time [2, 4]: 4
- Fold improvement in primary enzyme loading × time [2, 4]: 2.0
B1: Variant R2: engineered rhamnosidase polypeptide, variant of Kribbella flavida rhamnosidase SEQ ID No. 1017 (protein)
chain: MSFPAAPARLRFEHRTDPGPVLGIGTATPRLSWQVPTAPDDYRQAGYEVEIARGDAAPEQYTVDSADQVLVPWPGTPLAARESATVRVRVRGDGDWSQWSDPATVEAGLLSADDWTARFVSPRENAGHEAPAPLIGGVIDLPPDIAQARLYATAHGIYEPTLNGTRVGDEQLAPGWTAYEQRLRYQTYDVTDLVAPGENRLELLVGNGWYRGRMGFHGGHSLYGDRLAVLAQLEVTTATGEVKVLASDGTWTTRETNVLADDLYDGQHVDLRRTLGEPGPVDVLDADLSLLVAPDGPPVRVTDVLPAKAVTTSPAGKTLVDFGQNVVGRLRLRVRGGAAGDEIVLRHAEVLEDGELGVRPLRTAKATDSFVLAGPDEVTLEPTLTFHGFRYAEITGVPDLRAEDVEAVVVGSDLRRTGWFESSHPLLDRFHENVVWGMRGNFLDVPTDCPQRDERLGWTGDIQVFSPTASFLFDTAGFLTNWLADLIAEQHKDGSVPFVVPDVLRQPGPATAAWGDAATIVPWVLYERTGDAGLLARQLPSMRAWVDRMAGLAGDDLLWVGGFQFGDWLDPTAPPDDPFRAKADPDVLATAHLARSAEVVALAAEVVGAGELAREYAELAARVRQAFAAEYTTGSGRVLSDAATNYALALQWALLPTEAQRKRAGERLADLVRTAGFRISTGFVGTPLMADALADSGHPDLAYRLLLETGCPSWLYAVTMDATTVWERWDSMLPDGSINPGQMTSFNHYALGAVADWMHRRVAGLAPGDPGYRRIVVDPLFTAHLTKASARHLTPYGEAAVAWSRSGGRVRLEVTVPVGARARVAVPGESAPVEVGHGTHEWTADDVYGETPPLPADATIRQLIDHEPSWTTLAAAATRTGIVADDAELAGRLERYLDHPATELVDAVSPRGFSPSAEALHAELDSVLGR
modifications: Seq ID No. 1017 with mutations A143P, L214M, K219G, Q921H
- % conversion (Right peak/Left Peak) (−neg control) ([1]; R2 round: 20 deg C, 20 h, lysate 1.25% v/v, CBE 80% v/v, 100 mM Potassium phosphate pH 6): 1.09%
- Cumulative FIOP from WT ([1]; R2 round: 20 deg C, 20 h, lysate 1.25% v/v, CBE 80% v/v, 100 mM Potassium phosphate pH 6, estimate): 2.9
- % conversion (Right peak/Left Peak) ([1]; R2 round: 20 deg C, 20 h, lysate 1.25% v/v, CBE 80% v/v, 100 mM Potassium phosphate pH 6, negative control 52.49): 53.57%
- FIOP (% area increase variant/pos control) ([1]; R2 round: 20 deg C, 20 h, lysate 1.25% v/v, CBE 80% v/v, 100 mM Potassium phosphate pH 6, positive control WT): 2.9
- % conversion (Right peak/Left Peak) (−neg control) ([1]; R3 round: 35 deg C, 18 h, lysate 0.4% v/v, CBE 75% v/v, 100 mM Sodium acetate pH 5.8): 3.99%
- % conversion (Right peak/Left Peak) ([1]; R3 round: 35 deg C, 18 h, lysate 0.4% v/v, CBE 75% v/v, 100 mM Sodium acetate pH 5.8, negative control 47.91): 51.90%
- % change in Left Peak [2, 3]: −40%
- % change in Middle Peak [2, 3]: −96%
- % change in Right Peak [2, 3]: 309%
- % Right Peak [2, 3]: 80%
- % Left Peak [2, 3]: 18%
- % Middle Peak [2, 3]: 2%
- % change in Left Peak [2, 4]: −39%
- % change in Middle Peak [2, 4]: 19%
- % change in Right Peak [2, 4]: 113%
- % Right Peak [2, 4]: 29%
- % Left Peak [2, 4]: 18%
- % Middle Peak [2, 4]: 52%
